From PMC12516185 come the findings set out here.

For the assay, the target named is Zea mays pullulanase1 (ZPU1), from residue 80, GAL4 fusion (maize (Zea mays L.)) (UniProt O81638).

As to “maize isoamylase1 (ISA1), mature protein from residue 50, GAL4 fusion (from UniProt O22637 50-789) (enzyme)”, the Red Pullulan hydrolysis (ZPU1 activity) in total soluble extracts of yeast strain 830 (ISA1 and ZPU1) compared with strain 808 (ZPU1 alone) is 1.7 fold.
